{
  "source": "patent US20170145391",
  "key": {"[1]": {"biological_target": "4E-BP1 (Calbiochem), Q13541", "sequence (Q13541 whole entry)": "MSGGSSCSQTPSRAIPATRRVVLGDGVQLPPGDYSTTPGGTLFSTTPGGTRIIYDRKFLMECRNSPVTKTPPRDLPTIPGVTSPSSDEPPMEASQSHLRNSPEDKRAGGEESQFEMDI"}},
  "data": [
    {"protein": "FLAG-mTORβ (protein) MLGTGPAAATTAATTSSNVSVLQKKVTEDLSKTLLMYTVPAVQGFFRSISLSRGNNLQDTLRVLTLWFDYGHWPDVNEALVEGVKAIQIDTWLQVIPQLIARIDTPRPLVGRLIHQLLTDIGRYHPQALIYPLTVASKSTTTARHNAANKILKNMCEHSNTLVQQAMMVSEELIRVAILWHEMWHEGLEEASRLYFGERNVKGMFEVLEPLHAMMERGPQTLKETSFNQAYGRDLMEAQEWCRKYMKSGNVKDLTQAWDLYYHVFRRISKQLPQLTSLELQYVSPKLLMCRDLELAVPGTYDPNQPIIRIQSIAPSLQVITSKQRPRKLTLMGSNGHEFVFLLKGHEDLRQDERVMQLFGLVNTLLANDPTSLRKNLSIQRYAVIPLSTNSGLIGWVPHCDTLHALIRDYREKKKILLNIEHRIMLRMAPDYDHLTLMQKVEVFEHAVNNTAGDDLAKLLWLKSPSSEVWFDRRTNYTRSLAVMSMVGYILGLGDRHPSNLMLDRLSGKILHIDFGDCFEVAMTREKFPEKIPFRLTRMLTNAMEVTGLDGNYRITCHTVMEVLREHKDSVMAVLEAFVYDPLLNWRLMDTNTKGNKRSRTRTDSYSAGQSVEILDGVELGEPAHKKTGTTVPESIHSFIGDGLVKPEALNKKAIQIINRVRDKLTGRDFSHDDTLDVPTQVELLIKQATSHENLCQCYIGWCPFW", "values": [
      {"measurement": "mTOR in vitro kinase assay; immunoblot with phosphospecific antibody pS65-4E-BP1", "setting": "[1]", "value": "mTORβ can phosphorylate both S6K1 and 4E-BP1 in vitro, but to a lesser extent than mTORα"},
      {"measurement": "mTOR in vitro kinase assay; immunoblot with phosphospecific antibody pT389-S6K1", "setting": "His-S6K1C, P23443", "value": "mTORβ can phosphorylate both S6K1 and 4E-BP1 in vitro, but to a lesser extent than mTORα"}
    ]}
  ]
}
